Tested on: stromal cells isolated from adipose tissue
Assay: Effect of compounds on osteoblast differentiation of adipose stromal cells, measured by secreted osteocalcin
Assay type: cell-based, human
Conditions: differentiated as in Example 2 in presence and absence of compound; secreted osteocalcin assay; data not shown
Experimental: Adipose stromal cells were isolated as described in Example 1 and then treated as follows to induce differentiation into osteoblasts. Stromal cells were plated in 24-well and/or 6-well tissue culture plates in stromal cell medium (see above) at a density of about 22,000 cells/cm^2. After 24 hours, the stromal cell medium was replaced with osteoblast differentiation medium (DMEM with 10% fetal bovine serum (v/v); 10 mM β-glycerophosphate; 50 μg/ml ascorbate-2-phosphate; 60 U/ml penicillin; 60 U/ml streptomycin; 15 μg/ml amphotericin B). The osteoblast differentiation medium was replaced with fresh medium every 3 days for 3 weeks. When changing the media, one ml of conditioned media was collected and stored at −80° C. for later analysis of secreted factors. […]
Biochemical changes indicative of osteoblast differentiation were also assessed. Osteocalcin is an osteoblast-specific secreted protein that can be measured by ELISA (Intact Human Osteocalcin K EIA kit, catalog number BT-460, Biomedical Technologies, Inc., Stoughton, Mass.). […]
Cultures of stromal cells isolated from adipose tissue according to the method described in Example 1 were used to study the effect compounds of interest on osteoblast differentiation. […] Differentiation was measured by assays for secreted osteocalcin. […]

B1: bone morphogenetic protein 4: bone morphogenetic protein, known osteoblast differentiation promoting agent (protein, UniProt P12644 293-408, looked up)
Bone morphogenetic protein 4: SPKHHSQRARKKNKNCRRHSLYVDFSDVGWNDWIVAPPGYQAFYCHGDCPFPLADHLNSTNHAIVQTLVNSVNSSIPKACCVPTELSAISMLYLDEYDKVVLKNYQEMVVEGCGCR
effect on osteoblast differentiation: positively affect osteoblast differentiation
